From patent US20250059527A1 (UNIVERSITY OF DUNDEE, published 2025) come the findings set out here.

The experiment concerns the target α-synuclein (human, UniProt P37840 1-140). Put plainly: immunofluorescence microscopy, co-localisation in SK-MEL13 cells. As for the experimental part:
For immunofluorescence imaging, cells were first seeded onto 16 mm diameter circular sterile coverslips in 12-well culture plates and left to adhere overnight. All coverslips were sterilised with 100% (v/v) ethanol prior to use and allowed to dry. Cells were washed twice in PBS before being fixed in 4% (w/v) paraformaldehyde (diluted in PBS) at room temperature for 10 minutes. PFA was removed and the coverslips were washed twice in PBS. Coverslips were then permeabilised with 0.2% (v/v) NP40 in PBS for 3 min. Cells were then blocked by washing twice and a 15-minute incubation in 1% (w/v) BSA/PBS. Coverslips were then incubated for 1.5 hr at room temperature with a 1:100 dilution of anti-α-synuclein antibody (610786, BD Biosciences) in a humidified chamber. They were then washed 3 times (for 10 minutes each) in 0.2% (w/v) BSA/PBS before being incubated with goat anti-mouse-IgG alexa-fluor 594 conjugated secondary antibody (A-11005, Thermo Fisher Scientific) at a dilution of 1:500 for 1 hour at 37° C., protected from light. Coverslips were then washed three times in 0.2% (w/v) BSA/PBS for 10 minutes each with the first wash containing a 1:15,000 dilution of DAPI. […]
The interaction of NbSyn87 and alpha-synuclein was determined in extracts and cells, with alpha-synuclein knockout cells included as controls for a clean alpha-synuclein IP. […]

B1: GFP-NbSYN87 (VHH)
VHH: QVQLQESGGGSVQTGGSLRLSCVASGYSGYMAWFRQAPGKEREGIAAIYRGDKITYYAHSVQGRFTISQANAKNTVYLLMNSLKPEDTAIYYCAARRVVADSPLLSKTYAYWGQGTQVTVSS
notes: Transiently transfected into SK-MEL13 cells; also called GFP-tagged NbSyn87; not shown: GFP tag
As for B1, the binding result is listed as “binds”.
